Bridge positions count the residues as written; N and C are the ends. Peptide text beside a SMILES is read from it.
Tests used:
Human VEGF165 = molecular target: T1, Human VEGF165 (Homo sapiens, UniProt P15692); assay: BIAcore binding analysis of VEGF-binding peptides (surface plasmon resonance); details: 1:1 Langmuir binding; 1000 RU VEGF, 850 RU TNFα
T1 construct: purchased Biosource
T1 sequence (P15692 27-191 isoform P15692-4): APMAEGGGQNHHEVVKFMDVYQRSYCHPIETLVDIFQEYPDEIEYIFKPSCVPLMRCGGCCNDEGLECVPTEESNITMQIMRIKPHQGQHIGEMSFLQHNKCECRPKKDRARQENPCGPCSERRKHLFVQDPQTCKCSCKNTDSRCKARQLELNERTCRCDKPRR
Experimental: FIG. 3 provides results of a BIACORE binding analysis of VEGF binding peptides. Binding curves were obtained as described in the Examples. Data were fit to a two state reaction model with conformation change: Analyte (A) binds to ligand (B) to form complex AB.
In this Example, experiments conducted to assess the affinities of the peptides for VEGF are described. Affinities of the peptides for VEGF were measured using a BIAcore™-3000 surface plasmon resonance system (Biacore). A CM5 sensor chip was conditioned with 50 mM NaOH, 0.1% HCl, 0.1% SDS, and 0.08% H3PO4, and activated for covalent coupling of VEGF using N-ethyl-N′-(3-dimethylaminopropyl)-carbodiimide hydrochloride (EDC) and N-hydroxysuccinimide (NHS) according to the supplier's instructions (Biacore). Human VEGF165 (Biosource) was diluted to 5 μg/ml in 20 mM sodium acetate, pH 4.8 and injected at a flow rate of 2 μl/min to achieve approximately 1000 to 6000 response units (RU) of coupled protein. TNF-alpha (human TNF-alpha, Biosource, Int., Camarillo, Calif.) was similarly coupled to the CM5 sensor chip to approximately 850 to 3500 RU in the reference lane. A solution of 1 M ethanolamine was injected as a blocking agent. In some experiments, an additional solution of EDC and NHS were injected to improve baseline stability and a solution of 1 M ethanolamine injected as a blocking agent. The reference lane was activated with EDC and NHS and blocked with ethanolamine.
Peptides were synthesized using standard FMOC chemistry, purified by reverse phase HPLC to >95% purity (SynPep), and stored at 10 mg/mL in DMSO. For kinetic measurements, twofold serial diluted peptides in HBS-EP buffer, 0.01 M HEPES pH 7.4, 0.15 M NaCl, 3 mM EDTA, 0.005% Surfactant P20 (Biacore), were injected at 25° C. at a flow rate of 20 μL/min. Two-fold serial diluted DMSO samples and buffer samples were also injected for background subtraction. Kinetic parameters were calculated using BIAevaluation 3.1 software.

VegF = molecular target: T2, VegF (Homo sapiens, UniProt P15692); assay: Electrochemiluminescence (BioVeris) competition with Anti-VegF antibody for binding to VegF; details: ECL labeled Anti-VegF antibody, biotinylated VegF; for competition with Anti-VegF antibody for binding to VegF: 2 h room temperature
T2 construct: purchased PeproTech
T2 sequence (P15692 27-191 isoform P15692-4): T1 sequence (P15692 27-191 isoform P15692-4)
Experimental: FIG. 19 provides a graph showing results from a competition analysis of 2BBlck81 versus anti-VegF antibody binding to VegF.
Briefly, after cleavage, the pH of the cleaved sample was adjusted to 5.5, the sample was then loaded onto the column (equilibrated with 25 mM MES pH 5.5). The free 2BBIck81 was washed through the column using 25 mM sodium acetate pH 5.0 while the BCE103 catalytic core remained bound to the resin. The 2BBIck81 fraction was concentrated by ultrafiltration and analyzed using an electrochemiluminescence (ECL) based binding assay (BioVeris). The Anti-VegF antibody (Santa Cruz) and VegF (PeproTech) were labeled with the electrochemiluminescent dye and biotin, respectively, as described by the manufacturer (BioVeris). All materials were in Dulbecco's PBS (Mediatech) supplemented with 0.1% TWEEN®-80. An initial dilution series of Anti-VegF antibody (125, 250 and 500 ng/ml) and VegF (100, 150, 200 and 250 ng/ml) were tested in the binding assay to determine the concentrations of each that would give a robust ECL signal.
For testing 2BBIck81 binding, 50 μL of 500 ng/ml ECL labeled Anti-VegF antibody, 50 μL of 250 ng/ml biotinylated VegF and 100 μL 2BBIck81 (series of 12.5, 15, 31.25, 62.5, 125, 250 or 500 ng/ml) were incubated at room temperature for 2 h with shaking. Then, 50 μL of 0.2 mg/ml streptavidin coated beads were added and the reaction was incubated at room temperature for 30 minutes. The ECL signal was measured using a BioVeris M8/384 Analyzer as described by the manufacturer (BioVeris).

[1] = system: skin of subjects with Fitzpatrick skin types III or IV; assay: Skin lightening study, occlusive patches on lower back, clinical tanning grade; assay type: in vivo, human
Experimental: In this Example, experiments conducted to assess the skin lightening capabilities of BBI-AV are described. Thirteen subjects, ages 18-65, with Fitzpatrick skin types III or IV participated in this 22-day study. The Fitzpatrick skin classification is based on the skin's unprotected response to the first 30 to 45 minutes of sun exposure following a winter season without sun exposure. The categories of skin types are:
Five test sites of uniform color were marked on the lower back of each subject. The clinical grader assessed the degree of tan at each site using a 0-10 scale (0=very slight tan and 10=very deep tanning.). Each subject was pre-treated with one concentration of Molecule A, two concentrations of Molecule B, vehicle control buffer, and an untreated site for 11 consecutive days. Approximately 150 uL of test materials (0.1% and 0.9% of BBI-AV) and vehicle control were dosed onto the lower back using occlusive patches. Occlusive patches consisted of a Webril® (non-woven cotton) pad held to the skin with a porous, hypoallergenic tape (e.g., SCANPORE® or MICROPORE®). A strip of BLENDERM® tape equal in width of the cotton pad covered the outside of the tape to provide the occlusive patch. Patches remained in place until a clinician removed them the next day. This patching procedure was repeated for 11 days.
On day 12, the clinician removed the patches that were applied the previous day and the site was gently wiped to remove residual test material. The clinical grader assessed the degree of tan at each site using a […].

[2] = system: skin of individuals of skin type III and IV; assay: Reduction of skin pigmentation induced by UVA exposure (MPPD), clinical tanning grade; assay type: in vivo, human; details: for Day 13 Avg. Tanning Grade / Day 14 Avg. Tanning Grade / Day 15 Avg. Tanning Grade: 1.0 MPPD UVA daily on days 12-14, 0-10 scale; for Change on Day 13 (tanning grade minus day 12 grade) / Change on Day 14 (tanning grade minus day 12 grade) / Change on Day 15 (tanning grade minus day 12 grade): UVA-induced pigmentation; for Day 12 Avg. Tanning Grade: after 11 days of patches, before UVA exposure, 0-10 scale
Experimental: In this Example, experiments conducted to test the ability of BBI-AV to reduce skin pigmentation induced by UVA exposure are described. This study was conducted with 13 individuals of skin type III and IV based on The Fitzpatrick skin classification. On day one, each subject's minimal persistent pigment darkening dose (MPPD) was determined on the lower back of each individual, in an area that is equal in color to the area that received test material application. […] Subjects returned to the clinic 34 hours after the MPPD exposures were complete. The test sites were scored for pigment darkening using the following scale: • - no visible pigment darkening • ? questionable response; unclear • + slight darkening over essentially the whole irradiation field • ++ definite darkening over the whole irradiation field The site treated with the lowest dose of UVA producing a score of ‘+’ represented that subject's MPPD. On day two, sites of uniform color were marked on the lower back. The clinical grader assessed the degree of tan at each site using a 0-10 scale (0=very slight tan and 10=very deep tanning.) Then the Test material (0.1% and 0.9% of BBI-AV) and the vehicle control applied under occlusion. A volume of 150 μl was dosed onto each patch. The occlusive patches used hte these experiments were the same as described in Example 2. As described in Example 2, the patches remained in place until the next day, when a clinician removed them. This patching procedure was repeated for 11 days. On the days 12-14, the clinician removed the patches that were applied the previous day and the site was gently wiped to remove residual test material. The clinical grader assessed the degree of tan at each site using a 0-10 scale (0=no tan and 10=very deep tanning.) After grading was complete, each site was exposed to 1.0 MPPD of UVA as described for Day 1. New patches were applied after exposures were completed. On day 15, patches were removed and the degree of tan at each site was assessed using a 0-10 scale (0=no tan and 10=very deep tanning). […] In this table, the tanning grade results are shown as the results obtained for day 12 subtracted from grades of days 13, 14 and 15.

CC[C@H](C)[C@@H]1NC(=O)[C@H](CC(=O)O)NC(=O)[C@@H](NC(=O)[C@H](CC(N)=O)NC(=O)[C@@H]2CCCN2C(=O)[C@H](CCC(=O)O)NC(=O)[C@@H](N)C(C)C)CSSC[C@@H](C(=O)N[C@@H](Cc2ccccc2)C(=O)N[C@@H](CCC(=O)O)C(=O)N[C@@H](CCCNC(=N)N)C(=O)N[C@@H](CC(C)C)C(N)=O)NC(=O)[C@H](CCC(=O)O)NC(=O)[C@H](Cc2c[nH]c3ccccc23)NC(=O)[C@H](CCC(=O)O)NC(=O)[C@H](Cc2c[nH]c3ccccc23)NC(=O)[C@H](CCSC)NC(=O)[C@H](C(C)C)NC(=O)[C@H](Cc2c[nH]cn2)NC1=O [v114, reference compound] (H-VEPNCDIHVMWEWECFERL-NH2; disulfide 5-15; N-terminus and C-terminus assumed)
Kd (Human VEGF165): 223 nM
kd1 (Human VEGF165): 0.167 s⁻¹

B1: 1BBIck81: BBI with the grafted CK37281 peptide in the trypsin loop (protein)
chain: DDESSKPCCDQCACYNLYGWTCRCSDMRLNSCHSACKSCICALSYPAQCFCVDITDFCYEPCKPSEDDKEN
competition with Anti-VegF antibody for binding to VegF (VegF): also competed with the Anti-VegF antibody

B2: 2BBIck81: BBI with the grafted CK37281 peptide in the chymotrypsin loop (protein)
chain: DDESSKPCCDQCACTKSNPPQCRCSDMRLNSCHSACKSCACYNLYGWTCFCVDITDFCYEPCKPSEDDKEN
competition for VegF binding compared with synthesized CK37281 peptide (VegF): competed for VegF binding better than the synthesized CK37281 peptide itself
competition with Anti-VegF antibody for binding to VegF (VegF): competed with the Anti-VegF antibody for binding to VegF at micromolar concentrations

B3: BBI-AV: BBI sequences having anti-VEGF (AV) sequences incorporated; primary active of the personal care compositions (protein)
chain: DDESSKPCCDQCACYNLYGWTCRCSDMRLNSCHSACKSCICALSYPAQCFCVDLTDFCEPCKPSEDDKEN
change in tanning grade versus vehicle control ([1]; 0.1% and 0.9% of BBI-AV, 150 uL under occlusive patches for 11 days, graded day 12): greater change in the tanning grade
Change in Average Tanning Grade ([1]; 0.9% BBI-AV, Day 11 versus Day 1): −0.27
Average Day 1 Tanning Grade ([1]; 0.9% BBI-AV, occlusive patch on lower back, baseline before treatment, clinical grader scale): 4.96
Average Day 11 Tanning Grade ([1]; 0.9% BBI-AV, occlusive patches for 11 consecutive days, clinical grader scale): 4.69
Day 13 Avg. Tanning Grade ([2]; 0.1% BBI-AV): 5.08
Day 14 Avg. Tanning Grade ([2]; 0.1% BBI-AV): 5.13
Day 15 Avg. Tanning Grade ([2]; 0.1% BBI-AV): 5.5
Change on Day 13 (tanning grade minus day 12 grade) ([2]; 0.1% BBI-AV): 0.32
Change on Day 14 (tanning grade minus day 12 grade) ([2]; 0.1% BBI-AV): 0.37
Change on Day 15 (tanning grade minus day 12 grade) ([2]; 0.1% BBI-AV): 0.74
Day 12 Avg. Tanning Grade ([2]; 0.1% BBI-AV): 4.76
UVA induced pigmentation ([2]; 0.1% and 0.9% of BBI-AV under occlusion, 1.0 MPPD of UVA on days 12-14): UVA induced pigmentation is decreased
Day 13 Avg. Tanning Grade ([2]; 0.9% BBI-AV): 4.92
Day 14 Avg. Tanning Grade ([2]; 0.9% BBI-AV): 5.04
Day 15 Avg. Tanning Grade ([2]; 0.9% BBI-AV): 5.5
Change on Day 13 (tanning grade minus day 12 grade) ([2]; 0.9% BBI-AV): 0.23
Change on Day 14 (tanning grade minus day 12 grade) ([2]; 0.9% BBI-AV): 0.35
Change on Day 15 (tanning grade minus day 12 grade) ([2]; 0.9% BBI-AV): 0.81
Day 12 Avg. Tanning Grade ([2]; 0.9% BBI-AV): 4.69
